Test results taken from PMC9482650, “Quantitative fragmentomics allow affinity mapping of interactomes” (Nature Communications, 2022).
Changes are numbered by the printed parent chain.

T1: MPDZ_10, O75970
T1 sequence (O75970 1624-1722, limits assumed, looked up): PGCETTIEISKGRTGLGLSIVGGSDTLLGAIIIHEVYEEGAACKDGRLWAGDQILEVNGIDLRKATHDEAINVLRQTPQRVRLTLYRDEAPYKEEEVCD

T2: APBA3_1, O96018
T2 sequence (O96018 389-490, limits assumed, looked up): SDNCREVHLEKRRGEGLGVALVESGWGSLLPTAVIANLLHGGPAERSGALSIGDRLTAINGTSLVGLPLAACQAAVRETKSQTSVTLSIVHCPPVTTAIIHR

T3: SYNJ2BP, P57105
T3 sequence (P57105 8-110, limits assumed, looked up): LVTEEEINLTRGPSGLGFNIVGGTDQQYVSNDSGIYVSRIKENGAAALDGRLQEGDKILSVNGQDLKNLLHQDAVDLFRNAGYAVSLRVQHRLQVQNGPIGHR

T4: APBA1_2, Q02410
T4 sequence (Q02410 742-832, limits assumed, looked up): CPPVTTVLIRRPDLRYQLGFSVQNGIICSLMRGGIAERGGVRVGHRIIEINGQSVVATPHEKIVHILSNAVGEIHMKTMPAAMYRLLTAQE

T5: PTPN13_1, Q12923
T5 sequence (Q12923 1088-1188, limits assumed, looked up): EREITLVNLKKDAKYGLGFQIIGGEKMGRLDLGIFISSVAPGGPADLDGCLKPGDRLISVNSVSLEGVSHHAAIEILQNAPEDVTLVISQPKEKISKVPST

T6: HTRA4, P83105
T6 sequence (P83105 378-476, limits assumed, looked up): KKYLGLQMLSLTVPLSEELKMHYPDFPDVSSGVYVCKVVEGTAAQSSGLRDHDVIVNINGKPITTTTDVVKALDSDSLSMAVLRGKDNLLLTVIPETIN

T7: PDZD7_3, Q9H5P4
T7 sequence (Q9H5P4 857-944, limits assumed, looked up): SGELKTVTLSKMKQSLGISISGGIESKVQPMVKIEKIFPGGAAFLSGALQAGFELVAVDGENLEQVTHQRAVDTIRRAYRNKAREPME

T8: LIN7B, Q9HAP6
T8 sequence (Q9HAP6 88-185, limits assumed, looked up): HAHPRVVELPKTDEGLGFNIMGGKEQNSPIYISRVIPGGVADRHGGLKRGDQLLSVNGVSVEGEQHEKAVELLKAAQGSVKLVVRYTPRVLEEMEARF

T9: FRMPD1, Q5SYB0
T9 sequence (Q5SYB0 52-145, limits assumed, looked up): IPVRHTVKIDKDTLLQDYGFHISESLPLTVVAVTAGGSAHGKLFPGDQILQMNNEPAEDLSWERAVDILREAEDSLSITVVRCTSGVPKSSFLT

T10: ARHGAP21, Q5T5U3
T10 sequence (Q5T5U3 45-169, limits assumed, looked up): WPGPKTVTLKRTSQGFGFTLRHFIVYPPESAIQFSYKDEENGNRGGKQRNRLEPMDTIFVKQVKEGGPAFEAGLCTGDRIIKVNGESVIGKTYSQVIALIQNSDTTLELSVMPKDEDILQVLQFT

T11: APBA2_2, Q99767
T11 sequence (Q99767 654-744, limits assumed, looked up): T4 sequence (Q02410 742-832, limits assumed, looked up) with R10K, R15K, P59A, H65Q, I66A, A70S, Y84F, A89G

T12: NHERF3_4, Q5T2W1
T12 sequence (Q5T2W1 373-468, limits assumed, looked up): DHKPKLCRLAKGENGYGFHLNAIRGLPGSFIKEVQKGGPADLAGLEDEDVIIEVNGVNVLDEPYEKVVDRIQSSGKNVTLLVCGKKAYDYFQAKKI

T13: SIPA1L2, Q9P2F8
T13 sequence (Q9P2F8 945-1036, limits assumed, looked up): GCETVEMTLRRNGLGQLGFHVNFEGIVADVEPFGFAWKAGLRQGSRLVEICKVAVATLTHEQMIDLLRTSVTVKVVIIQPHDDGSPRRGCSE


Experiments:
Assay in all cases: holdup assay
Design in all cases: key: below the threshold = too weak to quantify, mostly under pKd 3.1 to 4
Details in all cases: plain residues with an end cap or a label only (N-terminal biotin on a linker: ado-ado)
GRIP2_3, Q9C0E4 = molecular target: GRIP2_3, Q9C0E4
Chain of GRIP2_3, Q9C0E4 (Q9C0E4 238-339): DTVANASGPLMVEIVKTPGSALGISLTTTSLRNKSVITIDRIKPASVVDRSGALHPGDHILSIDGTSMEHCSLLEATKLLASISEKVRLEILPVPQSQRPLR

GRIP2_7, Q9C0E4 = molecular target: GRIP2_7, Q9C0E4
Chain of GRIP2_7, Q9C0E4 (Q9C0E4 934-1023): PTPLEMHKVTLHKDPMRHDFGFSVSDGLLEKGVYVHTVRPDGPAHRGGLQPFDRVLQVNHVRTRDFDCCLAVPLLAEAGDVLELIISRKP

GRASP, Q7Z6J2 = molecular target: GRASP, Q7Z6J2
Chain of GRASP, Q7Z6J2 (Q7Z6J2 96-193): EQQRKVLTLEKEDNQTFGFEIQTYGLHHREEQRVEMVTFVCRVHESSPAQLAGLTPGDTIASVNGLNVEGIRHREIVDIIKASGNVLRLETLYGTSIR

MPDZ_10, O75970 = molecular target: T1, MPDZ_10, O75970
APBA3_1, O96018 = molecular target: T2, APBA3_1, O96018
TJP2_1, Q9UDY2 = molecular target: TJP2_1, Q9UDY2
Chain of TJP2_1, Q9UDY2 (Q9UDY2 24-128): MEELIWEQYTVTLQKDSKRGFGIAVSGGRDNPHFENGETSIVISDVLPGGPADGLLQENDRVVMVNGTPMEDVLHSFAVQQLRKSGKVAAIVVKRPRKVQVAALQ

SYNJ2BP, P57105 = molecular target: T3, SYNJ2BP, P57105
APBA1_2, Q02410 = molecular target: T4, APBA1_2, Q02410
MAST2, Q6P0Q8 = molecular target: MAST2, Q6P0Q8
Chain of MAST2, Q6P0Q8 (Q6P0Q8 1099-1202): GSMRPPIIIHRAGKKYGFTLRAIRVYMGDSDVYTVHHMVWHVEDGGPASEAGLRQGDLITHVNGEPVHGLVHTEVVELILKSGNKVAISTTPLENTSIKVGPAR

PTPN13_1, Q12923 = molecular target: T5, PTPN13_1, Q12923
HTRA4, P83105 = molecular target: T6, HTRA4, P83105
PDZD7_3, Q9H5P4 = molecular target: T7, PDZD7_3, Q9H5P4
PDLIM1, O00151 = molecular target: PDLIM1, O00151
Chain of PDLIM1, O00151 (O00151 1-87): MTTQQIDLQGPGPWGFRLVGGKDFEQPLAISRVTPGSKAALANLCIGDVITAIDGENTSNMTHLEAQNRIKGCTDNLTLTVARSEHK

Inadl_2, Q8NI35 = molecular target: Inadl_2, Q8NI35
Chain of Inadl_2, Q8NI35 (Q8NI35 238-335): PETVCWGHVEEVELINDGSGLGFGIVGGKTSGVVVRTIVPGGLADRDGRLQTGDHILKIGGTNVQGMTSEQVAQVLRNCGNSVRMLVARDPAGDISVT

DLG1_1, Q12959 = molecular target: DLG1_1, Q12959
LIN7B, Q9HAP6 = molecular target: T8, LIN7B, Q9HAP6
FRMPD1, Q5SYB0 = molecular target: T9, FRMPD1, Q5SYB0
GIPC2, Q8TF65 = molecular target: GIPC2, Q8TF65
Chain of GIPC2, Q8TF65 (Q8TF65 112-203): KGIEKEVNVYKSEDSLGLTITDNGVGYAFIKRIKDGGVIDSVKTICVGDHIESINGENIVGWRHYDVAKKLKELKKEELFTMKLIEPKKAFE

ARHGAP21, Q5T5U3 = molecular target: T10, ARHGAP21, Q5T5U3
SNX27, Q96L92 = molecular target: SNX27, Q96L92
APBA2_2, Q99767 = molecular target: T11, APBA2_2, Q99767
MAGI2_4, Q86UL8 = molecular target: MAGI2_4, Q86UL8
Chain of MAGI2_4, Q86UL8 (Q86UL8 772-865): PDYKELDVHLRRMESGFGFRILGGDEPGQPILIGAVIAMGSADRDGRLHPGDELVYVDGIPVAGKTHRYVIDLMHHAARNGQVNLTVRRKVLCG

NHERF3_4, Q5T2W1 = molecular target: T12, NHERF3_4, Q5T2W1
MAGI3_2, Q5TCQ9 = molecular target: MAGI3_2, Q5TCQ9
Chain of MAGI3_2, Q5TCQ9 (Q5TCQ9 398-503): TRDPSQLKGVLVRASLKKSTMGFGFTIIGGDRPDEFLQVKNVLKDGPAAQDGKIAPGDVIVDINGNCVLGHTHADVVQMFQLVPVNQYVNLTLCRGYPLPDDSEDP

SIPA1L2, Q9P2F8 = molecular target: T13, SIPA1L2, Q9P2F8

pKd (GRIP2_3, Q9C0E4) | pKd (GRIP2_7, Q9C0E4) | pKd (MPDZ_10, O75970) | pKd (APBA3_1, O96018) | pKd (TJP2_1, Q9UDY2) | pKd (APBA1_2, Q02410) | pKd (PTPN13_1, Q12923) | pKd (HTRA4, P83105) | pKd (PDZD7_3, Q9H5P4) | pKd (PDLIM1, O00151) | pKd (Inadl_2, Q8NI35) | pKd (DLG1_1, Q12959) | pKd (FRMPD1, Q5SYB0) | pKd (GIPC2, Q8TF65) | pKd (ARHGAP21, Q5T5U3) | pKd (SNX27, Q96L92) | pKd (APBA2_2, Q99767) | pKd (NHERF3_4, Q5T2W1) | pKd (MAGI3_2, Q5TCQ9) | pKd (SIPA1L2, Q9P2F8) | Binder | other results
below the threshold | below the threshold | below the threshold | below the threshold | below the threshold | below the threshold | below the threshold | 3.9 | below the threshold | below the threshold | below the threshold | below the threshold | below the threshold | below the threshold | 4.05 | below the threshold | below the threshold | 3.52 | below the threshold | below the threshold | PAALPESTHM [SLC9A3, P48764] | pKd (GRASP, Q7Z6J2): below the threshold; pKd (SYNJ2BP, P57105): below the threshold; pKd (MAST2, Q6P0Q8): 5.35; pKd (LIN7B, Q9HAP6): below the threshold; pKd (MAGI2_4, Q86UL8): below the threshold
below the threshold | below the threshold | below the threshold | below the threshold | 4.02 | 3.58 | below the threshold | below the threshold | below the threshold | below the threshold | below the threshold | below the threshold | below the threshold | 3.53 | below the threshold | 5.33 | below the threshold | 4.15 | below the threshold | below the threshold | VYEVPVETKF [SLC26A3, P40879] | pKd (GRASP, Q7Z6J2): 3.81; pKd (SYNJ2BP, P57105): 3.57; pKd (MAST2, Q6P0Q8): 5.48; pKd (LIN7B, Q9HAP6): 4.21; pKd (MAGI2_4, Q86UL8): below the threshold

Continued, binder first:

Binder | pKd (GRIP2_3, Q9C0E4) | pKd (GRIP2_7, Q9C0E4) | pKd (MPDZ_10, O75970) | pKd (APBA3_1, O96018) | pKd (TJP2_1, Q9UDY2) | pKd (APBA1_2, Q02410) | pKd (PTPN13_1, Q12923) | pKd (HTRA4, P83105) | pKd (PDZD7_3, Q9H5P4) | pKd (PDLIM1, O00151) | pKd (Inadl_2, Q8NI35) | pKd (DLG1_1, Q12959) | pKd (FRMPD1, Q5SYB0) | pKd (GIPC2, Q8TF65) | pKd (ARHGAP21, Q5T5U3) | pKd (SNX27, Q96L92) | pKd (APBA2_2, Q99767) | pKd (NHERF3_4, Q5T2W1) | pKd (MAGI3_2, Q5TCQ9) | pKd (SIPA1L2, Q9P2F8) | other results
SKQFDKNAYV [CLDN10, P78369] | below the threshold | below the threshold | below the threshold | below the threshold | 4.19 | 3.73 | below the threshold | below the threshold | below the threshold | below the threshold | below the threshold | below the threshold | below the threshold | below the threshold | 3.84 | 3.78 | below the threshold | below the threshold | 3.67 | below the threshold | pKd (GRASP, Q7Z6J2): 3.56; pKd (SYNJ2BP, P57105): below the threshold; pKd (MAST2, Q6P0Q8): 4.02; pKd (LIN7B, Q9HAP6): below the threshold; pKd (MAGI2_4, Q86UL8): below the threshold
VKQYADVEGF [HNRNPK, P61978;P61978-2] | below the threshold | below the threshold | below the threshold | below the threshold | below the threshold | below the threshold | below the threshold | below the threshold | below the threshold | below the threshold | below the threshold | below the threshold | below the threshold | below the threshold | below the threshold | below the threshold | below the threshold | below the threshold | below the threshold | below the threshold | pKd (SYNJ2BP, P57105): below the threshold; pKd (MAGI2_4, Q86UL8): below the threshold
NTALVESEDL [PALLS, Q8WX93;Q8WX93-1] | below the threshold | below the threshold | below the threshold | below the threshold | below the threshold | below the threshold | below the threshold | below the threshold | below the threshold | 5.47 | below the threshold | below the threshold | below the threshold | below the threshold | below the threshold | 4.38 | below the threshold | below the threshold | below the threshold | below the threshold | pKd (GRASP, Q7Z6J2): below the threshold; pKd (MAST2, Q6P0Q8): 5.15; pKd (LIN7B, Q9HAP6): below the threshold
